For the assay, the target named is human CD3 epsilon (CD3ε) (human) (UniProt P07766). The assay can be described thus: flow cytometry on human T cells. (In flow cytometry, cells or beads pass a laser one at a time.)

As a reminder, the EC50 (read off the curve) is the midpoint of the concentration-response curve. Read a high EC50 (read off the curve) as lower potency in that assay. For the substance OKT3 (antibody), the EC50 (read off the curve) came to 0.03 nM.
